Results as given in article PMC6137059.

Target: TcpK (Clostridium perfringens (plasmid pCW3), UniProt Q1PLI2 1-102)
Assay: fluorescence polarization; SPR: 10 mM HEPES pH 7.4, 200 mM NaCl, 3 mM EDTA, 0.05% Tween 20, 20 C; […]
Settings: protein: recombinant; tags: N-terminal His6-TEV, cleaved; chain copies: 2; label: 5' Alexa488; blunt

B1: oriTmin23 Alexa488 (dsDNA)
DNA 1: AAGGAACTTTACAGGGAACTTTA
DNA 2: TAAAGTTCCCTGTAAAGTTCCTT
Question: With B1 as the binder, how does the Kd read?
Answer: 590 nM
